Measured values taken from PMC8373167 (Advanced Science, 2021).

Experiments:
ACE2 [1] = biological target: T1, ACE2 (Homo sapiens, UniProt Q9BYF1); assay: SPR; recombinant human ACE2 (50 ug/mL) immobilised on a nanogold sensor chip activated with EDC/NHS; dilutions of peptide flowed at 20 uL/min for 7 min; Nicoya OpenSPR
Target sequence in this assay (Q9BYF1 18-740): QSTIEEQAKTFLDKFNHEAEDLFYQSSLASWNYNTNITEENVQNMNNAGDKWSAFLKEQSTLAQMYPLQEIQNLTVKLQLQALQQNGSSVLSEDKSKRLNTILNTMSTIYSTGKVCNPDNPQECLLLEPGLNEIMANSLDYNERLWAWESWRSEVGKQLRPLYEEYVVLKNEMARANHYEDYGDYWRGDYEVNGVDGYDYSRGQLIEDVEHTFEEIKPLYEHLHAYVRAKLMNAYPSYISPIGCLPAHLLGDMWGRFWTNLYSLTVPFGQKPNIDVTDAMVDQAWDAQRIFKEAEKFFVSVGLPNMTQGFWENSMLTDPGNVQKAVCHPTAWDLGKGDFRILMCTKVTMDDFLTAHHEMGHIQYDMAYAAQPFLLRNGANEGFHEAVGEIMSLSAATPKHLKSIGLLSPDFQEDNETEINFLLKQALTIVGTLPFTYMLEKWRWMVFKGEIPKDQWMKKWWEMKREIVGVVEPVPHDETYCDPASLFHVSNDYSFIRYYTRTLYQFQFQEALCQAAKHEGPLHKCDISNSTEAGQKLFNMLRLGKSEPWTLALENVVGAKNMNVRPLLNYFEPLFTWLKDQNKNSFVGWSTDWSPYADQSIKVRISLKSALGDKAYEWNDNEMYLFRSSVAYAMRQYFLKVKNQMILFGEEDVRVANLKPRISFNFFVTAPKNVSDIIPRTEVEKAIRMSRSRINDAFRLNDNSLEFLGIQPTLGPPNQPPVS

[2] = format: in vivo, mice
Experimental: Supplemental Figure 5. Body weight monitoring following DX600 exposure was conducted in mice for 25 days. The experiment was carried out in 10 mice at 4-weeks of age. The mice were either […]
was repeated on day 0, day 4, day 11, day 18 and day 25, and the weight of the mice was […]
group (n = 5, weight from 26.5 ± 5.2 g to 41.2 ± 3.1 g) and the control group (n = 5, weight from […]

ACE2 [3] = details: cited from earlier work
ACE2 [4] = biological target: T1, ACE2; assay: biochemical
Target sequence in this assay (Q9BYF1 18-805): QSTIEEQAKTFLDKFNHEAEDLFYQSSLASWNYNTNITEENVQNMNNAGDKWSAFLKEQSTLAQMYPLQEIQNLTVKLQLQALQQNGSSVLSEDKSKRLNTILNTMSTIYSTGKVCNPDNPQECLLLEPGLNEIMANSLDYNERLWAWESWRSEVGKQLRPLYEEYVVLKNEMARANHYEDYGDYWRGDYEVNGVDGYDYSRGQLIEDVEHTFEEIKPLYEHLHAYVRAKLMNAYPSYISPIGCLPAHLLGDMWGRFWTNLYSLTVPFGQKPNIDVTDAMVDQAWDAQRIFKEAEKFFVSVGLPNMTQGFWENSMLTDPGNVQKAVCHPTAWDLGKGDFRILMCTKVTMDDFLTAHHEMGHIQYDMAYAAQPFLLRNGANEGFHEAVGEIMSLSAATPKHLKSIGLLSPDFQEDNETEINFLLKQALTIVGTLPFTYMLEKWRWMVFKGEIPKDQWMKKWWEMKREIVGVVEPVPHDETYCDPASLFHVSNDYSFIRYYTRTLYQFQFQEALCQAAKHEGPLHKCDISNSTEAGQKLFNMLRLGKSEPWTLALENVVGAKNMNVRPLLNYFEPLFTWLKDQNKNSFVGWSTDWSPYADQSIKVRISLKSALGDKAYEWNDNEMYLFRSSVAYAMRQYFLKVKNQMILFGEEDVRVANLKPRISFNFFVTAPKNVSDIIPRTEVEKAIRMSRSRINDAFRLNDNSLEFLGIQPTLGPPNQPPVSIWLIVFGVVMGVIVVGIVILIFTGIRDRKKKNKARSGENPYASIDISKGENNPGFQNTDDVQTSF
Experimental: Briefly, recombinant human ACE2 protein (50 µg mL^−1; BP003061) was immobilized on the surface of the nanogold sensor chip, after the chip was activated by 1‐ethyl‐3‐(3‐dimethylaminopropyl)carbodiimide/N‐hydroxysuccinimide. […] K D, ka and kd were calculated using Trace Drawer Evaluation version 2.0 (Trace Software International, Saint‐Romain, France).

[5] = format: physicochemical; details: 0.01 M PBS, 37 °C, 50 µL tracer in 450 µL PBS, sampled at 1, 2, 4 h; stated within 2 h
Experimental: The solution was analyzed by radio‐HPLC to assess the radiochemical purity. The HPLC was eluted with water‐CH3CN system (Phase A: 0.1% TFA H2O; Phase B: 0.1% TFA CH3CN) using gradient elution (0–5 min 20% B; 5–10 min 20%–80% B; 10–12 min 80% B; 12–15 min 80%–20% B) at a flow rate of 1.0 mL min^−1. The radiolabeling yield was 59.9 ± 3.9% (non‐decay corrected, n = 10) and the radiochemical purity was over 95%. […] At 1, 2, and 4 h time points, 10 µL aliquot was analyzed by radio‐HPLC to assess the radiochemical purity.
Supplemental Figure 2. […] (A) Saturation binding assay […]
assay of DX600. (C) hACE2 expression specifically determine the accumulation of 64Cu-HZ20 over HEK293-hACE2 and HEK293-WT cells for 2 h incubation at 37 °C. (D) Stability analysis

ACE2 [6] = biological target: T1, ACE2; details: in vivo
Target sequence in this assay (Q9BYF1 18-805): as above

ACE2 [7] = biological target: T1, ACE2; details: PET/MR 2 h after injection, female volunteers #005 and #012
Target sequence in this assay (Q9BYF1 18-805): as above

in vivo = details: female, athymic nude, mouse, HepG2 xenograft tumor, iv, 3.7 MBq, total radioactivity
Experimental: 5 × 10^6 of HepG2 cells were inoculated into the right front shoulder region of the mice to build the xenograft tumor model with ACE2 expression. When the tumor volumes were estimated to be 450–800 mm^3, the mice were used for the studies. […] Scans were performed at 60, 120, and 180 min after administration. […] Subsequently, animals were scanned at 60, 120, and 180 min post‐injection. Regions of interest were defined over tumor, heart, liver, lung, kidney, and muscle and uptake computed relative to the injected activity.
Tumor, heart, liver, lung, kidney and muscle were selected for analysis.

clinical = details: human, in vivo, iv, total radioactivity

DOTA-DX600 (peptide) gave a Kd (ACE2 [1]) of 100 nM.
In the case of `CC(=O)NCC(=O)N[C@@H](CC(=O)O)C(=O)N[C@@H](Cc1ccc(O)cc1)C(=O)N[C@@H](CO)C(=O)N[C@@H](Cc1cnc[nH]1)C(=O)N[C@H]1CSSC[C@@H](C(=O)N[C@H](C(=O)N[C@@H](Cc2ccc(O)cc2)C(=O)N2CCC[C@H]2C(=O)N[C@@H](CC(=O)O)C(=O)N2CCC[C@H]2C(=O)N[C@@H](CCC(=O)O)C(=O)NCC(=O)NCC(=O)NCC(N)=O)[C@@H](C)O)NC(=O)[C@H](CCCCN)NC(=O)[C@H](Cc2c[nH]c3ccccc23)NC(=O)[C@H](Cc2c[nH]c3ccccc23)NC(=O)[C@@H]2CCCN2C(=O)[C@H](Cc2ccc(O)cc2)NC(=O)[C@H](Cc2ccc(O)cc2)NC(=O)[C@H](CCCNC(=N)N)NC(=O)[C@H](CC(C)C)NC(=O)[C@@H]2CCCN2C(=O)[C@H](CO)NC1=O` [DX600], the “body weight at start” value ([2]; mice 4 weeks old, n = 5, injections day 0, 4, 11, 18, 25) is reported as 26.5 ± 5.2 g, the “body weight at end” value ([2]; mice, n = 5, 25 days, injections day 0, 4, 11, 18, 25) is reported as 41.2 ± 3.1 g and the “body weight versus saline control group” value ([2]; mice, n = 5 per group, 25 days) is reported as “no significant difference”. For the same molecule, the “stability to ACE2 catalyzed hydrolysis” value (ACE2 [3]) was “stable”.
With DX600 (peptide) the Kd (ACE2 [1]) was 98.7 nM.
Work on `CC(C)C[C@@H]1NC(=O)[C@@H]2CCCN2C(=O)[C@H](CO)NC(=O)[C@@H](NC(=O)[C@H](Cc2c[nH]cn2)NC(=O)[C@H](CO)NC(=O)[C@H](Cc2ccc(O)cc2)NC(=O)[C@H](CC(=O)O)NC(=O)CNC(=O)CN2CCN(CC(=O)O)CCN(CC(=O)O)CCN(CC(=O)O)CC2)CSSC[C@@H](C(=O)N[C@H](C(=O)N[C@@H](Cc2ccc(O)cc2)C(=O)N2CCC[C@H]2C(=O)N[C@@H](CC(=O)O)C(=O)N2CCC[C@H]2C(=O)N[C@@H](CCC(=O)O)C(=O)NCC(=O)NCC(=O)NCC(N)=O)[C@@H](C)O)NC(=O)[C@H](CCCCN)NC(=O)[C@H](Cc2c[nH]c3ccccc23)NC(=O)[C@H](Cc2c[nH]c3ccccc23)NC(=O)[C@@H]2CCCN2C(=O)[C@H](Cc2ccc(O)cc2)NC(=O)[C@H](Cc2ccc(O)cc2)NC(=O)[C@H](CCCNC(=N)N)NC1=O` [HZ20] yielded a Kd (ACE2 [4]) of 100 nM.
With `CC(C)C[C@@H]1NC(=O)[C@@H]2CCCN2C(=O)[C@H](CO)NC(=O)[C@@H](NC(=O)[C@H](Cc2c[nH]cn2)NC(=O)[C@H](CO)NC(=O)[C@H](Cc2ccc(O)cc2)NC(=O)[C@H](CC(=O)O)NC(=O)CNC(=O)CN2CCN(CC(=O)O)CCN(CC(=O)O)CCN(CC(=O)O)CC2)CSSC[C@@H](C(=O)N[C@H](C(=O)N[C@@H](Cc2ccc(O)cc2)C(=O)N2CCC[C@H]2C(=O)N[C@@H](CC(=O)O)C(=O)N2CCC[C@H]2C(=O)N[C@@H](CCC(=O)O)C(=O)NCC(=O)NCC(=O)NCC(N)=O)[C@@H](C)O)NC(=O)[C@H](CCCCN)NC(=O)[C@H](Cc2c[nH]c3ccccc23)NC(=O)[C@H](Cc2c[nH]c3ccccc23)NC(=O)[C@@H]2CCCN2C(=O)[C@H](Cc2ccc(O)cc2)NC(=O)[C@H](Cc2ccc(O)cc2)NC(=O)[C@H](CCCNC(=N)N)NC1=O` [^68Ga‐HZ20, metal not drawn] the “in vitro stability (radiochemical purity by radio-HPLC)” value [5] was “stable”, the SUVmax breast (ACE2 [6]) was 2.72 and the SUVmax testis (ACE2 [6]) was 5.57. For the same molecule, the blood-brain barrier penetration (ACE2 [6]) was “poor”, the “uptake in immature follicles” value (ACE2 [7]) was “no uptake” and the “uptake in stroma of ovary” value (ACE2 [7]) was “slight uptake”. The SUV at 2 h (in vivo) was 0.099 ± 0.0065 SUV, the tissue uptake per volume at 2 h (in vivo) was 0.56 %ID/mL and the SUV at 1.5 h (clinical; female, SUVmax breast) was 1.78 ± 0.17 SUV. For the same molecule, the SUV at 1.5 h (clinical; female, SUVmax breast, old group) was 1.35 ± 0.22 SUV, the SUV at 1.5 h (clinical; female, SUVmax breast, young group) was 2.21 ± 0.25 SUV and the SUV (clinical; female, SUVmax corpus luteum) was 7.35 SUV. The SUV at 1.5 h (clinical; female, SUVmax gallbladder) was 2.76 SUV, the SUV at 1.5 h (clinical; female, SUVmax ovary) was 2.12 ± 1.42 SUV and the SUV at 1.5 h (clinical; female, SUVmax renal cortex) was 38.8 SUV. It also gave an SUV at 1.5 h (clinical; female, SUVmax uterus) of 2.41 ± 0.34 SUV, an SUV at 1.5 h (clinical; SUVmax conjunctiva) of 1.71 ± 0.08 SUV and an SUV at 1.5 h (clinical; SUVmax esophagus) of 1.63 ± 0.11 SUV. It also gave an SUV at 1.5 h (clinical; SUVmax liver) of 1.59 ± 0.14 SUV, an SUV at 1.5 h (clinical; SUVmax nasal) of 1.91 ± 0.18 SUV and an SUV at 1.5 h (clinical; SUVmax pancreas) of 1.63 ± 0.24 SUV. The SUV at 1.5 h (clinical; SUVmax rectum) was 1.46 ± 0.13 SUV, the SUV at 1.5 h (clinical; SUVmax renal cortex (right kidney in Figure 7)) was 25.7 ± 1.39 SUV and the SUV at 1.5 h (clinical; SUVmax renal cortex, left kidney) was 22.2 ± 1.78 SUV. It also gave an SUV at 1.5 h (clinical; SUVmax renal cortex, right kidney, person recovered from COVID-19, 7 months post infection, 90 min) of 18.4 SUV, an SUV at 1.5 h (clinical; SUVmax renal medulla) of 18.3 ± 1.42 SUV and an SUV at 1.5 h (clinical; male, SUVmax gallbladder) of 0.75 SUV. It also gave an SUV at 1.5 h (clinical; male, SUVmax gallbladder, male recovered from COVID-19, 90 min) of 4.32 SUV, an SUV at 1.5 h (clinical; male, SUVmax left testis) of 4.58 ± 0.4 SUV and an SUV at 1.5 h (clinical; male, SUVmax left testis, male recovered from COVID-19, 90 min) of 8.65 SUV. The SUV at 1.5 h (clinical; male, SUVmax penis) was 2 ± 0.25 SUV, the SUV at 1.5 h (clinical; male, SUVmax renal cortex) was 23.9 SUV and the SUV at 1.5 h (clinical; male, SUVmax renal cortex, left kidney, male recovered from COVID-19, 90 min) was 11.6 SUV. For the same molecule, the SUV at 1.5 h (clinical; male, SUVmax right testis) was 4.51 ± 0.54 SUV, the SUV at 1.5 h (clinical; male, SUVmax right testis, male recovered from COVID-19, 90 min) was 8.79 SUV and the SUV at 1.5 h (clinical; male, SUVmax small intestine) was 0.48 SUV. For the same molecule, the SUV at 1.5 h (clinical; male, SUVmax testis) was 4.46 ± 0.3 SUV.
